Assay results: article PMC7895871 (Protein & Cell, 2020)

Biological target: the molecule itself
Assay: cryo-EM structure; human MCU-EMRE-MICU1-MICU2 supercomplex co-expressed in HEK 293F, pulled down by C-terminally Strep-tagged EMRE; Titan Krios, K2; overall map 3.3–3.7 Å

B1: MCU (mitochondrial calcium uniporter), subunit of the human MCU-EMRE-MICU1-MICU2 supercomplex (MEMMS) (natural protein)
chain: DDVTVVYQNGLPVISVRLPSRRERCQFTLKPISDSVGVFLRQLQEEDRGIDRVAIYSPDGVRVAASTGIDLLLLDDFKLVINDLTYHVRPPKRDLLSHENAATLNDVKTLVQQLYTTLCIEQHQLNKERELIERLEDLKEQLAPLEKVRIEISRKAEKRTTLVLWGGLAYMATQFGILARLTWWEYSWDIMEPVTYFITYGSAMAMYAYFVMTRQEYVYPEARDRQYLLFFHKGAKKSRFDLEKYNQLKDAIAQAEMDLKRLRDPLQVHLPLRQIG
notes: MCU, human; pore-forming subunit with NTD, CCD and TMD; Four MCU subunits form one channel (tetramer); the supercomplex holds two such tetramers joined at the NTDs; Construct limits and any tags are in the supplementary Methods; source: HEK 293F cells transfected by BacMam viruses, co-expressed; complex pulled down by the C-terminally Strep-tagged EMRE
- stoichiometry N: 4
